Several values for one entry are separate records, joined by “and”; a condition that tells them apart may be missing. Equal entries are not always repeated.
What was measured:
[1] = molecular target: T1, CD226 (human) (UniProt Q15762); experiment: flow cytometry, CD226-expressing cells
T1 sequence: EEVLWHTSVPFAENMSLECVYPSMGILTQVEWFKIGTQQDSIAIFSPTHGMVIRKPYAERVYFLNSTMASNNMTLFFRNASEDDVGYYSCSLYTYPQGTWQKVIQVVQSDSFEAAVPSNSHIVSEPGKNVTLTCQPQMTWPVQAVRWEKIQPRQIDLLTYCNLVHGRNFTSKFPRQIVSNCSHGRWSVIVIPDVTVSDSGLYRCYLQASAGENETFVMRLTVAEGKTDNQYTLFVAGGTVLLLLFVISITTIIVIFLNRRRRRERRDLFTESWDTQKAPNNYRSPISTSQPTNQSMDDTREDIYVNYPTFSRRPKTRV

[2] = molecular target: T2, CD96 (UniProt P40200); experiment: flow cytometry, CD96-expressing cells
T2 sequence (looked up): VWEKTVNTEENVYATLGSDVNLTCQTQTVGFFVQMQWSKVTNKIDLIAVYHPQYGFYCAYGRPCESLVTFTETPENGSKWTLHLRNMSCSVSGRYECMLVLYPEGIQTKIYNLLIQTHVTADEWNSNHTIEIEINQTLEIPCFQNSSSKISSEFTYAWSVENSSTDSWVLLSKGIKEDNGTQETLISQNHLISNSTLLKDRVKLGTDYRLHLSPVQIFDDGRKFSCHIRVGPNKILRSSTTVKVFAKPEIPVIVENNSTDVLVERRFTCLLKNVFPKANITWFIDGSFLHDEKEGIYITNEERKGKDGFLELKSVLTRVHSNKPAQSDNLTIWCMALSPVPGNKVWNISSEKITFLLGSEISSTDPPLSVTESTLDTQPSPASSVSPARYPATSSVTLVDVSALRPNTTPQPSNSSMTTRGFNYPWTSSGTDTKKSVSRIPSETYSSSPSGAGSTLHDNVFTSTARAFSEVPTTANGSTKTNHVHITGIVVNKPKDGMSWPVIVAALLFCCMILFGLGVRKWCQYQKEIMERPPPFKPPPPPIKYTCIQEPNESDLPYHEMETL

[3] = molecular target: T1, CD226 (human); experiment: flow cytometry, transfected cells
[4] = molecular target: T2, CD96; experiment: flow cytometry, cells

B1: CD155 variant IgV-Fc P18T, D23G, S24A, N35D, H49L, L79P, F91S, L104M, G111R (Fc fusion, not shown: a dimerising Fc or GST; small tags and cut ends)
chain: PGTGDVVVQAPTQVTGFLGGAVTLPCYLQVPDMEVTHVSQLTWARLGESGSMAVFHQTQGPSYSESKRLEFVAARPGAELRNASLRMSGLRVEDEGNYTCMFVTFPQRSRSVDIWL
For B1, the MFI at 11.1 nM [1] was 987 MFI.

B2: CD155 variant IgV-Fc V9L, P18S, Q60R, V75L, L79P, R89K, F91S, L104E, G111R (Fc fusion, not shown: a dimerising Fc or GST; small tags and cut ends)
chain: PGTGDLVVQAPTQVSGFLGDSVTLPCYLQVPNMEVTHVSQLTWARHGESGSMAVFHRTQGPSYSESKRLEFLAARPGAELRNASLKMSGLRVEDEGNYTCEFVTFPQRSRSVDIWL
In the case of B2, the MFI at 11.1 nM [2] is reported as 959 MFI and the MFI at 11.1 nM [1] is reported as 986 MFI.

B3: CD155 variant IgV-Fc P18T, T45Q, T61R, S65N, S67L (Fc fusion, not shown: a dimerising Fc or GST; small tags and cut ends)
chain: PGTGDVVVQAPTQVTGFLGDSVTLPCYLQVPNMEVTHVSQLQWARHGESGSMAVFHQRQGPNYLESKRLEFVAARLGAELRNASLRMFGLRVEDEGNYTCLFVTFPQGSRSVDIWL
B3 was tested, and the MFI at 100 nM [2] was 22800 MFI.

B4: CD155 P18T, F91S, V115A IgV-Fc (Fc fusion, not shown: a dimerising Fc or GST; small tags and cut ends)
chain: PGTGDVVVQAPTQVTGFLGDSVTLPCYLQVPNMEVTHVSQLTWARHGESGSMAVFHQTQGPSYSESKRLEFVAARLGAELRNASLRMSGLRVEDEGNYTCLFVTFPQGSRSADIWL
Binder B4 has an MFI [3] of 38500 and an MFI [4] of 22700.

B5: CD155 P18S, P64S, F91S IgV-Fc (Fc fusion, not shown: a dimerising Fc or GST; small tags and cut ends)
chain: PGTGDVVVQAPTQVSGFLGDSVTLPCYLQVPNMEVTHVSQLTWARHGESGSMAVFHQTQGSSYSESKRLEFVAARLGAELRNASLRMSGLRVEDEGNYTCLFVTFPQGSRSVDIWL
Binder B5 has an MFI [3] of 498000 and an MFI [4] of 140000.

B6: CD155 L88P IgV-Fc (Fc fusion, not shown: a dimerising Fc or GST; small tags and cut ends)
chain: PGTGDVVVQAPTQVPGFLGDSVTLPCYLQVPNMEVTHVSQLTWARHGESGSMAVFHQTQGPSYSESKRLEFVAARLGAELRNASPRMFGLRVEDEGNYTCLFVTFPQGSRSVDIWL
With B6 the MFI [3] was 65100 and the MFI [4] was 35300.

B7: CD155 P18T, S42P, F91S IgV-Fc (Fc fusion, not shown: a dimerising Fc or GST; small tags and cut ends)
chain: PGTGDVVVQAPTQVTGFLGDSVTLPCYLQVPNMEVTHVPQLTWARHGESGSMAVFHQTQGPSYSESKRLEFVAARLGAELRNASLRMSGLRVEDEGNYTCLFVTFPQGSRSVDIWL
B7 was tested, and the MFI [3] was 554000 and the MFI [4] was 135000.

B8: CD155 P18T, F91S IgV-Fc (Fc fusion, not shown: a dimerising Fc or GST; small tags and cut ends)
chain: PGTGDVVVQAPTQVTGFLGDSVTLPCYLQVPNMEVTHVSQLTWARHGESGSMAVFHQTQGPSYSESKRLEFVAARLGAELRNASLRMSGLRVEDEGNYTCLFVTFPQGSRSVDIWL
With B8 the MFI [3] was 401000 and the MFI [4] was 158000.

B9: CD155 R94H IgV-Fc (Fc fusion, not shown: a dimerising Fc or GST; small tags and cut ends)
chain: PGTGDVVVQAPTQVPGFLGDSVTLPCYLQVPNMEVTHVSQLTWARHGESGSMAVFHQTQGPSYSESKRLEFVAARLGAELRNASLRMFGLHVEDEGNYTCLFVTFPQGSRSVDIWL
With B9 the MFI [3] was 18900 and the MFI [4] was 11700.

B10: CD155 A56V IgV-Fc (Fc fusion, not shown: a dimerising Fc or GST; small tags and cut ends)
chain: PGTGDVVVQAPTQVPGFLGDSVTLPCYLQVPNMEVTHVSQLTWARHGESGSMVVFHQTQGPSYSESKRLEFVAARLGAELRNASLRMFGLRVEDEGNYTCLFVTFPQGSRSVDIWL
In the case of B10, the MFI [3] is reported as 455000 and the MFI [4] is reported as 161000.

B11: CD155 P18S, Y30C, F91S IgV-Fc (Fc fusion, not shown: a dimerising Fc or GST; small tags and cut ends)
chain: PGTGDVVVQAPTQVSGFLGDSVTLPCCLQVPNMEVTHVSQLTWARHGESGSMAVFHQTQGPSYSESKRLEFVAARLGAELRNASLRMSGLRVEDEGNYTCLFVTFPQGSRSVDIWL
With B11 the MFI [3] was 382000 and the MFI [4] was 56900.

B12: CD155 P18T, T45A, F91S IgV-Fc (Fc fusion, not shown: a dimerising Fc or GST; small tags and cut ends)
chain: PGTGDVVVQAPTQVTGFLGDSVTLPCYLQVPNMEVTHVSQLAWARHGESGSMAVFHQTQGPSYSESKRLEFVAARLGAELRNASLRMSGLRVEDEGNYTCLFVTFPQGSRSVDIWL
Binder B12 has an MFI [3] of 436000 and an MFI [4] of 191000.

B13: CD155 P18T, F91S, F108L IgV-Fc (Fc fusion, not shown: a dimerising Fc or GST; small tags and cut ends)
chain: PGTGDVVVQAPTQVTGFLGDSVTLPCYLQVPNMEVTHVSQLTWARHGESGSMAVFHQTQGPSYSESKRLEFVAARLGAELRNASLRMSGLRVEDEGNYTCLFVTLPQGSRSVDIWL
In the case of B13, the MFI [3] is reported as 395000 and the MFI [4] is reported as 193000.

B14: CD155 P18T, Q60K IgV-Fc (Fc fusion, not shown: a dimerising Fc or GST; small tags and cut ends)
chain: PGTGDVVVQAPTQVTGFLGDSVTLPCYLQVPNMEVTHVSQLTWARHGESGSMAVFHKTQGPSYSESKRLEFVAARLGAELRNASLRMFGLRVEDEGNYTCLFVTFPQGSRSVDIWL
B14 gave an MFI [3] of 238000 and an MFI [4] of 154000.

B15: CD155 A13E, P18S, A56V, F91S IgV-Fc (Fc fusion, not shown: a dimerising Fc or GST; small tags and cut ends)
chain: PGTGDVVVQEPTQVSGFLGDSVTLPCYLQVPNMEVTHVSQLTWARHGESGSMVVFHQTQGPSYSESKRLEFVAARLGAELRNASLRMSGLRVEDEGNYTCLFVTFPQGSRSVDIWL
In the case of B15, the MFI [3] is reported as 358000 and the MFI [4] is reported as 119000.

B16: CD155 L44P IgV-Fc (Fc fusion, not shown: a dimerising Fc or GST; small tags and cut ends)
chain: PGTGDVVVQAPTQVPGFLGDSVTLPCYLQVPNMEVTHVSQPTWARHGESGSMAVFHQTQGPSYSESKRLEFVAARLGAELRNASLRMFGLRVEDEGNYTCLFVTFPQGSRSVDIWL
With B16 the MFI [3] was 581000 and the MFI [4] was 152000.

B17: CD155 P18T, F91S, G111D IgV-Fc (Fc fusion, not shown: a dimerising Fc or GST; small tags and cut ends)
chain: PGTGDVVVQAPTQVTGFLGDSVTLPCYLQVPNMEVTHVSQLTWARHGESGSMAVFHQTQGPSYSESKRLEFVAARLGAELRNASLRMSGLRVEDEGNYTCLFVTFPQDSRSVDIWL
For B17, the MFI [3] was 438000 and the MFI [4] was 168000.

B18: CD155 P18S, F91S, L104P IgV-Fc (Fc fusion, not shown: a dimerising Fc or GST; small tags and cut ends)
chain: PGTGDVVVQAPTQVSGFLGDSVTLPCYLQVPNMEVTHVSQLTWARHGESGSMAVFHQTQGPSYSESKRLEFVAARLGAELRNASLRMSGLRVEDEGNYTCPFVTFPQGSRSVDIWL
With B18 the MFI [3] was 26200 and the MFI [4] was 10900.

B19: CD155 variant IgV-Fc P18F, S65A, S67V, F91S, L104M, G111R (Fc fusion, not shown: a dimerising Fc or GST; small tags and cut ends)
chain: WPPPGTGDVVVQAPTQVFGFLGDSVTLPCYLQVPNMEVTHVSQLTWARHGESGSMAVFHQTQGPAYVESKRLEFVAARLGAELRNASLRMSGLRVEDEGNYTCMFVTFPQRSRSVDIWL
Binder B19 has a Fold Change from CD155-ECD [1] of 0.06 fold and an MFI at 11.1 nM [1] of 901 MFI.

B20: CD155 variant IgV-Fc P18C, T26M, L44V, M55I, Q62K, L79P, F91S, L104M, T107M (Fc fusion, not shown: a dimerising Fc or GST; small tags and cut ends)
chain: WPPPGTGDVVVQAPTQVCGFLGDSVMLPCYLQVPNMEVTHVSQVTWARHGESGSIAVFHQTKGPSYSESKRLEFVAARPGAELRNASLRMSGLRVEDEGNYTCMFVMFPQGSRSVDIWL
Binder B20 has a Fold Change from CD155-ECD [1] of 0.06 fold and an MFI at 11.1 nM [1] of 973 MFI.

B21: CD155 variant IgV-Fc V9I, P18T, D23G, L79P, F91S, G111R (Fc fusion, not shown: a dimerising Fc or GST; small tags and cut ends)
chain: WPPPGTGDIVVQAPTQVTGFLGGSVTLPCYLQVPNMEVTHVSQLTWARHGESGSMAVFHQTQGPSYSESKRLEFVAARPGAELRNASLRMSGLRVEDEGNYTCLFVTFPQRSRSVDIWL
Work on B21 yielded a Fold Change from CD155-ECD [1] of 0.06 fold and an MFI at 11.1 nM [1] of 897 MFI.

B22: CD155 variant IgV-Fc P18F, L79P, M90L, F91S, V95A, L104M, G111R (Fc fusion, not shown: a dimerising Fc or GST; small tags and cut ends)
chain: WPPPGTGDVVVQAPTQVFGFLGDSVTLPCYLQVPNMEVTHVSQLTWARHGESGSMAVFHQTQGPSYSESKRLEFVAARPGAELRNASLRLSGLRAEDEGNYTCMFVTFPQRSRSVDIWL
B22 was tested, and the Fold Change from CD155-ECD [1] was 0.06 fold and 0.07 fold and the MFI at 11.1 nM [1] was 917 MFI and 1070 MFI.

B23: CD155 variant IgV-Fc V9L, P18L, L79P, M90I, F91S, T102S, L104M, G111R (Fc fusion, not shown: a dimerising Fc or GST; small tags and cut ends)
chain: WPPPGTGDLVVQAPTQVLGFLGDSVTLPCYLQVPNMEVTHVSQLTWARHGESGSMAVFHQTQGPSYSESKRLEFVAARPGAELRNASLRISGLRVEDEGNYSCMFVTFPQRSRSVDIWL
With B23 the Fold Change from CD155-ECD [1] was 0.06 fold and the MFI at 11.1 nM [1] was 910 MFI.

Reference: patent US20200040059A1
